{"source": "patent US11103562B2", "about": "“Composition comprising alkaline phosphatase for use in the treatment of arthritides” (AMRIF BV, priority 2017, dated 2021)", "key": {"[1]": {"experiment": "Tolerability of therapeutic interventions in arthritic rats", "type": "in vivo", "protocol": "All rats (except healthy) were immunized and arthritis was induced via 1× or 4× intra-articular (i.a) mBSA injections, 4 or 5 days apart in the arthritic (right) knee, the contralateral (left, non-arthritic) knee serving as control knee. For therapeutic interventions, AP (human recombinant placenta AP, TNO, Zeist, The Netherlands) was administered subcutaneously (s.c.) at a dose of 700 U/kg (≈200 μg), MTX (VU University Medical Centers' Pharmacy) was administered intra-peritoneal (i.p.) at two dosages: 0.3 mg/kg (low dose) and 1.0 mg/kg (high dose). The rats were divided in 8 groups, based on different treatments and treatment schedules. In a prophylactic setting, two rats received AP twice prior to intra-articular (i.a.) arthritis induction and four rats received AP twice prior to intra-articular and 4× PBS in between i.a. injections. In the treatment groups, arthritic rats were administered AP twice or 4× after arthritis induction, either as standalone therapy or in combination with low or high dose MTX. Control rats received 500 μL of PBS (i.p.). […] At the end of study, all rats were sacrificed and tissues were excised for further processing and various analyses."}, "[2]": {"tested_on": "ED1-, ED2- and FRβ-positive macrophages in liver and spleen", "experiment": "Macrophage infiltration in liver and spleen of arthritic rats (ED1/ED2 immunohistochemistry, FRβ immunofluorescence)", "type": "in vivo, rat", "protocol": "The arthritic and contralateral knees from all rats were dissected in toto and fixed for 7 days at 4° C. in 10% freshly made paraformaldehyde in PBS with 2% sucrose (pH=7.3) prior to decalcification in osteosoft (101728, Merck, Germany) for ˜2.5 weeks at room temperature. Thereafter, knees were embedded in paraffin. Sections of 5 μm were cut through the centre of the joint in longitudinal direction and stained with haematoxylin and eosin (HE) to assess the degree of inflammation in synovial tissue. Liver and spleen sections from all rats were dissected and fixed in 4% paraformaldehyde for 24 h before embedding in paraffin. Sections of 5 μm were cut and stained initially with HE and then for macrophages Staining for macrophages with ED1 (homologous to human CD68), and ED2 (homologous to human CD163, a marker for M2 anti-inflammatory macrophages), or isotype control antibody was performed. Images were captured using a Leica 4000B microscope and Leica digital camera DC500 (Microsystems B. V. Rijswijk, The Netherlands).\nLiver and spleen tissues collected at the end of the study were snap frozen in liquid nitrogen and stored at −80° C. Tissues were embedded in appropriate media (OCT; SKU4583, Tissue-Tek, Netherlands), cut using a cryotome cryostat (−20° C.) (Leica, The Netherlands) and placed on Superfrost (4951PLUS4, ThermoFisher, The Netherlands) glass slides for immunofluorescence (IF) staining Sections of 8 μm were cut and stained with haematoxylin and eosin. […]\nStained slides of liver and spleen sections of arthritic rats and AP-treated arthritic rats were blinded and counted by two independent observers for FRβ, ED1- and ED2-positive synovial macrophages. For quantification, representative areas of liver and spleen sections were divided into 4 regions, each representing a central pulp and vein, respectively. The FRβ, ED1- and ED2-positive macrophages were counted at 400× magnification as described above. […] As a reference liver and spleen sections of healthy rats were analyzed as control."}, "macrophages": {"tested_on": "macrophages", "experiment": "[^18F]fluoro-PEG-folate macrophage PET-CT imaging of arthritic knees", "type": "in vivo", "details": "PET scan at day 40; one rat per group", "description": "The macrophage PET tracer [^18F]fluoro-PEG-folate was synthesized, with a radiochemical purity of >96.5% and mean specific activity of 27.6±3.5 GBq/μmol. Untreated and 4× AP-treated arthritic were anesthetized using inhalation anaesthetics (isoflurane 2-2.5% and oxygen […]). The tail vein was cannulated with a poly-urethane 3 French cannula (0.7 mm×19 mm, BD Angiocath, Breda, The Netherlands). During PET-CT (Mediso nanoPET-CT, Budapest, Hungary) rats were place in an integrated heating bed (˜35° C.) while monitoring respiratory function. Computed tomography (CT) scan was performed for 5 min, followed by tracer administration (10.7±1.8 MBq) at the start of a dynamic PET scan of 60 min. PET data were normalized, and corrected for scatter, randoms, attenuation, decay and dead time. The list mode PET data were rebinned in 19 successive frames (4×5, 4×10, 2×30, 3×60, 2×300, 3×600 and 1×900 s), which were reconstructed using an iterative 3D Poisson ordered-subsets expectation-maximization algorithm with 4 iterations and 6 subsets. […] The CT and PET images were superimposed for drawing the regions of interest (ROI). […] TACs were expressed as standardized uptake values (SUV), i.e. mean ROI radioactivity concentration normalized to injected dose and body weight."}}, "data": [{"molecule": "AP: human recombinant placenta alkaline phosphatase (hRESCAP; TNO, Zeist), an ectophosphatase (protein, UniProt P05187 23-506, looked up) Alkaline phosphatase, …: IIPVEEENPDFWNREAAEALGAAKKLQPAQTAAKNLIIFLGDGMGVSTVTAARILKGQKKDKLGPEIPLAMDRFPYVALSKTYNVDKHVPDSGATATAYLCGVKGNFQTIGLSAAARFNQCNTTRGNEVISVMNRAKKAGKSVGVVTTTRVQHASPAGTYAHTVNRNWYSDADVPASARQEGCQDIATQLISNMDIDVILGGGRKYMFRMGTPDPEYPDDYSQGGTRLDGKNLVQEWLAKRQGARYVWNRTELMQASLDPSVTHLMGLFEPGDMKYEIHRDSTLDPSLMEMTEAALRLLSRNPRGFFLFVEGGRIDHGHHESRAYRALTETIMFDDAIERAGQLTSEEDTLSLVTADHSHVFSFGGYPLRGSSIFGLAPGKARDRKAYTVLLYGNGPGYVLKDGARPDVTESESGSPEYRQQSAVPLDEETHAGEDVAVFARGPQAHLVHGVQEQTFIAHVMAFAACLEPYTACDLAPPAGTTD", "values": [{"measurement": "changes in body weight", "setting": "[1]", "result": "nor were significant changes in the body weight observed"}, {"measurement": "tolerability / adverse effects", "setting": "[1]; AP 700 U/kg, MTX 0.3 or 1.0 mg/kg", "result": "well tolerated"}, {"measurement": "reduction of both ED1- and ED2-positive infiltrating macrophages in spleen", "setting": "[2]; AP-treated vs saline-treated arthritic rats", "result": "~30", "unit": "%"}, {"measurement": "decrease of both ED1- and ED2-positive infiltrating macrophages in liver", "setting": "[2]; AP-treated vs saline-treated arthritic rats, p<0.001", "result": "~50", "unit": "%"}, {"measurement": "FRβ-positive macrophages in liver and spleen", "setting": "[2]; after AP treatment, arthritic rats", "result": "lowered number"}, {"measurement": "increased [^18F]fluoro-PEG-folate uptake (SUV) in arthritic knee of the untreated rat compared to the 4× AP-treated rat", "setting": "macrophages", "result": 1.5, "unit": "fold"}]}]}
